From US20220211812A1 (Bristol-Myers Squibb, published 2022)
Square brackets hold non-standard residues; d marks the D form. Ends that are not written are not given here. Phe(4-Ac) = CC(=O)c1ccc(C[C@H](N)C(=O)O)cc1

T1: human RXFP1 receptor (human, UniProt Q9HBX9 1-757)
T1 sequence (looked up): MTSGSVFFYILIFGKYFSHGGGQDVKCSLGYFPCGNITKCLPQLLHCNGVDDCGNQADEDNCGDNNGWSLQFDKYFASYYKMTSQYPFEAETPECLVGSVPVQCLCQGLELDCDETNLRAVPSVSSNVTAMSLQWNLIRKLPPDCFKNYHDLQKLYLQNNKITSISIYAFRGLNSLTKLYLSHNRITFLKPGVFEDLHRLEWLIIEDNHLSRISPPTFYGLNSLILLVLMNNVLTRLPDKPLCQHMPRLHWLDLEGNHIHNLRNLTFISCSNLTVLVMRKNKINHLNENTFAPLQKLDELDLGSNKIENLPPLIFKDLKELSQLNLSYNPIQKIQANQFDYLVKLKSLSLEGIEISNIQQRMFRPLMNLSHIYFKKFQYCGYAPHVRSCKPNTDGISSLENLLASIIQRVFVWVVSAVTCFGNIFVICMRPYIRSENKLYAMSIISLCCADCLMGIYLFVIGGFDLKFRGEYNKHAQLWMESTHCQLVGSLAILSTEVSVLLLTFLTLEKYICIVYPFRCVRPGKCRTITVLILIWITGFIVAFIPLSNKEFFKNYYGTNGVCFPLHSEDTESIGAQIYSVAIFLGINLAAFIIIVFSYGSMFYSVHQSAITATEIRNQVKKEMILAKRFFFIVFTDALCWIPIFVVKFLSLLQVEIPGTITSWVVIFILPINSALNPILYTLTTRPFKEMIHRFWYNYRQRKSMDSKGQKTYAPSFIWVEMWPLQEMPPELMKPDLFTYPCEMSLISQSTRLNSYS

B1: AQ1-Sar-Sar-Sar-Glu-Glu-Glu^γ-C13-COOH (ligand)
chain 1: XLYSALANKCCHVGCTKRSLARFC
chain 2: ASWMEEVIKLCGRELVRAQIAICGMSTWS
peptide: XXXEEE
modifications: not fully specified; Sar = sarcosine (N-methylglycine); Glu^γ bonded by amide to fatty acid -C13-COOH; oxime-linked to pAcF of the A chain; pAcF (para-acetyl-L-phenylalanine) at position 1, oxime-linked to PK enhancer Sar-Sar-Sar-Glu-Glu-Glu^γ-C13-COOH
B2: AQ1-KKKKKK-Glu^γ-C13-COOH (ligand)
chain 1: XLYSALANKCCHVGCTKRSLARFC
chain 2: ASWMEEVIKLCGRELVRAQIAICGMSTWS
peptide: KKKKKKE
modifications: not fully specified; Glu^γ bonded by amide to fatty acid -C13-COOH; oxime-linked to pAcF of the A chain; pAcF (para-acetyl-L-phenylalanine) at position 1, oxime-linked to PK enhancer KKKKKK-Glu^γ-C13-COOH
B3: AQ1-Compound 39 (ligand)
chain 1: XLYSALANKCCHVGCTKRSLARFC
chain 2: ASWMEEVIKLCGRELVRAQIAICGMSTWS
modifications: pAcF (para-acetyl-L-phenylalanine) at position 1, oxime-linked to Compound 39 ((S)-1-(aminooxy)-33-carboxy-4,7,17,27,35-pentaoxo-11,14,21,24-tetraoxa-3,8,18,28,34-pentaazadopentacontan-52-oic acid)
B4: AQ1-EEEGGG-dGlu^γ-C13-COOH (ligand)
chain 1: XLYSALANKCCHVGCTKRSLARFC
chain 2: ASWMEEVIKLCGRELVRAQIAICGMSTWS
peptide: EEEGGGE
modifications: not fully specified; dGlu^γ = D-glutamic acid (gamma), linked to fatty acid -C13-COOH; oxime-linked to pAcF of the A chain; pAcF (para-acetyl-L-phenylalanine) at position 1, oxime-linked to PK enhancer EEEGGG-dGlu^γ-C13-COOH
B5: RLX-BM25/AN1 (ligand)
chain 1: NLYSALANKCCHVGCTKRSLARFC
chain 2: ASWMEEVIKLCGRELVRAQIAICG[Phe(4-Ac)]STWS
modifications: disulfide (positions not given here); ends not checked
B6: AQ1-KKKSGGSGG-Glu^γ-C13-COOH (ligand)
chain 1: XLYSALANKCCHVGCTKRSLARFC
chain 2: ASWMEEVIKLCGRELVRAQIAICGMSTWS
peptide: KKKSGGSGGE
modifications: not fully specified; Glu^γ bonded by amide to fatty acid -C13-COOH; oxime-linked to pAcF of the A chain; pAcF (para-acetyl-L-phenylalanine) at position 1, oxime-linked to PK enhancer KKKSGGSGG-Glu^γ-C13-COOH
B7: AQ1-GSHHHHHGS-Glu^γ-C13-COOH (ligand)
chain 1: XLYSALANKCCHVGCTKRSLARFC
chain 2: ASWMEEVIKLCGRELVRAQIAICGMSTWS
peptide: GSHHHHHGSE
modifications: not fully specified; Glu^γ bonded by amide to fatty acid -C13-COOH; oxime-linked to pAcF of the A chain; pAcF (para-acetyl-L-phenylalanine) at position 1, oxime-linked to PK enhancer GSHHHHHGS-Glu^γ-C13-COOH
B8: AQ1-GGGGS-Glu^γ-C13-COOH (ligand)
chain 1: XLYSALANKCCHVGCTKRSLARFC
chain 2: ASWMEEVIKLCGRELVRAQIAICGMSTWS
peptide: GGGGSE
modifications: not fully specified; Glu^γ bonded by amide to fatty acid -C13-COOH; oxime-linked to pAcF of the A chain; pAcF (para-acetyl-L-phenylalanine) at position 1, oxime-linked to PK enhancer GGGGS-Glu^γ-C13-COOH
B9: AQ1-KKSGGSGG-Glu^γ-C13-COOH (ligand)
chain 1: XLYSALANKCCHVGCTKRSLARFC
chain 2: ASWMEEVIKLCGRELVRAQIAICGMSTWS
peptide: KKSGGSGGE
modifications: not fully specified; Glu^γ bonded by amide to fatty acid -C13-COOH; oxime-linked to pAcF of the A chain; pAcF (para-acetyl-L-phenylalanine) at position 1, oxime-linked to PK enhancer KKSGGSGG-Glu^γ-C13-COOH
B10: AQ1-KKKGGG-Glu^γ-C13-COOH (ligand)
chain 1: XLYSALANKCCHVGCTKRSLARFC
chain 2: ASWMEEVIKLCGRELVRAQIAICGMSTWS
peptide: KKKGGGE
modifications: not fully specified; Glu^γ bonded by amide to fatty acid -C13-COOH; oxime-linked to pAcF of the A chain; pAcF (para-acetyl-L-phenylalanine) at position 1, oxime-linked to PK enhancer KKKGGG-Glu^γ-C13-COOH
B11: AQ1-dKdKdKdKdKdK-Glu^γ-C13-COOH (ligand)
chain 1: XLYSALANKCCHVGCTKRSLARFC
chain 2: ASWMEEVIKLCGRELVRAQIAICGMSTWS
peptide: KKKKKKE
modifications: not fully specified; dK = D-lysine (six); Glu^γ bonded by amide to fatty acid -C13-COOH; oxime-linked to pAcF of the A chain; pAcF (para-acetyl-L-phenylalanine) at position 1, oxime-linked to PK enhancer dKdKdKdKdKdK-Glu^γ-C13-COOH
B12: AQ1-EESGGSGG-Glu^γ-C13-COOH (ligand)
chain 1: XLYSALANKCCHVGCTKRSLARFC
chain 2: ASWMEEVIKLCGRELVRAQIAICGMSTWS
peptide: EESGGSGGE
modifications: not fully specified; Glu^γ bonded by amide to fatty acid -C13-COOH; oxime-linked to pAcF of the A chain; pAcF (para-acetyl-L-phenylalanine) at position 1, oxime-linked to PK enhancer EESGGSGG-Glu^γ-C13-COOH
B13: AQ1-EEEGGG-Glu^γ-C15-CH3 (ligand)
chain 1: XLYSALANKCCHVGCTKRSLARFC
chain 2: ASWMEEVIKLCGRELVRAQIAICGMSTWS
peptide: EEEGGGE
modifications: not fully specified; Glu^γ bonded by amide to fatty acid -C15-CH3; oxime-linked to pAcF of the A chain; pAcF (para-acetyl-L-phenylalanine) at position 1, oxime-linked to PK enhancer EEEGGG-Glu^γ-C15-CH3
B14: AQ1-GSGSGSGS-Glu^γ-C15-COOH (ligand)
chain 1: XLYSALANKCCHVGCTKRSLARFC
chain 2: ASWMEEVIKLCGRELVRAQIAICGMSTWS
peptide: GSGSGSGSE
modifications: not fully specified; Glu^γ bonded by amide to fatty acid -C15-COOH; oxime-linked to pAcF of the A chain; pAcF (para-acetyl-L-phenylalanine) at position 1, oxime-linked to PK enhancer GSGSGSGS-Glu^γ-C15-COOH
B15: AQ1-KKSGGSGG-Glu^α-C13-COOH (ligand)
chain 1: XLYSALANKCCHVGCTKRSLARFC
chain 2: ASWMEEVIKLCGRELVRAQIAICGMSTWS
peptide: KKSGGSGGE
modifications: not fully specified; Glu^α linked to fatty acid -C13-COOH; oxime-linked to pAcF of the A chain; pAcF (para-acetyl-L-phenylalanine) at position 1, oxime-linked to PK enhancer KKSGGSGG-Glu^α-C13-COOH
B16: AQ1-RGGEEKKKEKEK-Glu^γ-C13-COOH (ligand)
chain 1: XLYSALANKCCHVGCTKRSLARFC
chain 2: ASWMEEVIKLCGRELVRAQIAICGMSTWS
peptide: RGGEEKKKEKEKE
modifications: not fully specified; Glu^γ bonded by amide to fatty acid -C13-COOH; oxime-linked to pAcF of the A chain; pAcF (para-acetyl-L-phenylalanine) at position 1, oxime-linked to PK enhancer RGGEEKKKEKEK-Glu^γ-C13-COOH
B17: AQ1-EEEGGG-Glu^γ-C17-COOH (ligand)
chain 1: XLYSALANKCCHVGCTKRSLARFC
chain 2: ASWMEEVIKLCGRELVRAQIAICGMSTWS
peptide: EEEGGGE
modifications: not fully specified; Glu^γ bonded by amide to fatty acid -C17-COOH; oxime-linked to pAcF of the A chain; pAcF (para-acetyl-L-phenylalanine) at position 1, oxime-linked to PK enhancer EEEGGG-Glu^γ-C17-COOH
B18: AQ1-EEEEEE-Glu^γ-C15-COOH (ligand)
chain 1: XLYSALANKCCHVGCTKRSLARFC
chain 2: ASWMEEVIKLCGRELVRAQIAICGMSTWS
peptide: EEEEEEE
modifications: not fully specified; Glu^γ bonded by amide to fatty acid -C15-COOH; oxime-linked to pAcF of the A chain; pAcF (para-acetyl-L-phenylalanine) at position 1, oxime-linked to PK enhancer EEEEEE-Glu^γ-C15-COOH
B19: AQ1-GETGSSGEGT-Glu^γ-C13-COOH (ligand)
chain 1: XLYSALANKCCHVGCTKRSLARFC
chain 2: ASWMEEVIKLCGRELVRAQIAICGMSTWS
peptide: GETGSSGEGTE
modifications: not fully specified; Glu^γ bonded by amide to fatty acid -C13-COOH; oxime-linked to pAcF of the A chain; pAcF (para-acetyl-L-phenylalanine) at position 1, oxime-linked to PK enhancer GETGSSGEGT-Glu^γ-C13-COOH
B20: WT-RLX (ligand)
chain 1: QLYSALANKCCHVGCTKRSLARFC
chain 2: ASWMEEVIKLCGRELVRAQIAICGMSTWS
modifications: disulfide (positions not given here); ends not checked

Target: T1, human RXFP1 receptor
Assay: cell-based or functional assay

Binder	hRXFP1/CHO-K1 cAMP EC50 (nM, avg)
B1	0.59 nM
B2	0.08 nM
B3	2.23 nM
B4	1.91 nM
B5	0.09 nM
B6	0.14 nM
B7	0.28 nM
B8	0.14 nM
B9	0.34 nM
B10	0.09 nM
B11	0.1 nM
B12	0.83 nM
B13	0.46 nM
B14	2.79 nM
B15	0.27 nM
B16	0.29 nM
B17	10.5 nM
B18	11.1 nM
B19	0.65 nM
B20	0.12 nM
